Experimental findings from US6174679 are described below.

In this series the target is T1, CIF150/hTAFII150 (Homo sapiens) (UniProt Q6P1X5).
T1 sequence: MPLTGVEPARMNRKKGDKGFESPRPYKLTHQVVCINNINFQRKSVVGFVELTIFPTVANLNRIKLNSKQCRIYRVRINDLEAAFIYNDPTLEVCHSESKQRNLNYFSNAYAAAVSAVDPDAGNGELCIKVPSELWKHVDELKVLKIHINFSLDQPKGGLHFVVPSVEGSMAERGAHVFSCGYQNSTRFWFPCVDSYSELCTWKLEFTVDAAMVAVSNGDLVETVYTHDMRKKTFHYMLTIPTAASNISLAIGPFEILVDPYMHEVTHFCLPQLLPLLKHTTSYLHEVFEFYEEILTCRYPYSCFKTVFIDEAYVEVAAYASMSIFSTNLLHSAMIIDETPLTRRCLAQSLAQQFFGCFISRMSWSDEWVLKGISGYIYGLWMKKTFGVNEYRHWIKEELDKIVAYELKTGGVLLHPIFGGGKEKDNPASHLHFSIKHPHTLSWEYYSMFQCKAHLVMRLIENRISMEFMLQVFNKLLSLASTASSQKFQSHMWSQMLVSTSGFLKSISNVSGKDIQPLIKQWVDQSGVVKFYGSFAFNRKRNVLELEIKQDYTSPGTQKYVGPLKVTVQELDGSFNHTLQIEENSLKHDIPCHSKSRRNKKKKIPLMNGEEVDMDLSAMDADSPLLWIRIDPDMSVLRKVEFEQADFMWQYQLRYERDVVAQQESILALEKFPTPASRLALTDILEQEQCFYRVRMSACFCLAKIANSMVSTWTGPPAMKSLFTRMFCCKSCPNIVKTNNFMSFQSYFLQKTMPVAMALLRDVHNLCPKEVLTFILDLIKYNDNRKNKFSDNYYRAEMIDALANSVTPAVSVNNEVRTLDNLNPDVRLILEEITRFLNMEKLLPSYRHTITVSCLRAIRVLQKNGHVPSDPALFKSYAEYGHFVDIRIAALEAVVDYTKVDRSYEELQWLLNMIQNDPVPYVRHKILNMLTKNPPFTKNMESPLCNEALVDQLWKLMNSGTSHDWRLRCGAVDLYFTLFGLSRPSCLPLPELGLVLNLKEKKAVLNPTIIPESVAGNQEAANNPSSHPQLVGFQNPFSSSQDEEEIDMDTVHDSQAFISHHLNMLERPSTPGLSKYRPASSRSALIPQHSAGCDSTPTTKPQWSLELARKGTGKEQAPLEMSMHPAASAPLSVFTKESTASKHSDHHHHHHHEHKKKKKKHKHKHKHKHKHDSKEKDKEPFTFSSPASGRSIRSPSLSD
Kind of series: EMSA. The following applies: affinity improvement after selection (text gives both three and four rounds); dGdC competitor; supershifted by anti-CIF150 serum. A general note: Mobility shift assays separate free from complexed probe on a gel.

With “GAG (double strand) [selected CBE fragments with GAG core]”, the binding signal came to 5 fold.
